T1: Factor VIIa (purified human, Enzyme Research Laboratories) (human, UniProt P08709 61-466)
T1 sequence (looked up): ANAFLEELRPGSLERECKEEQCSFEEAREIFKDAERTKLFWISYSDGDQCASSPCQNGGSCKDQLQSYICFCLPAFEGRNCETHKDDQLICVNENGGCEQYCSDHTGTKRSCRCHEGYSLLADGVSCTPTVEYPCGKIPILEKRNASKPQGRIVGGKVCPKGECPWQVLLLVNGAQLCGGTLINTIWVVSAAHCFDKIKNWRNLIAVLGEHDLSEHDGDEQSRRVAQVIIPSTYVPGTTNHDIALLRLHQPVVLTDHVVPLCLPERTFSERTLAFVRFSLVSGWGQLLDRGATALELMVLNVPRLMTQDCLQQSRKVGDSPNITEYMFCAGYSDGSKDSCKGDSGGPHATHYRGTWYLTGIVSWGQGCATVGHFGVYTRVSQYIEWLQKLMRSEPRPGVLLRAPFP


Biological target: T1, Factor VIIa (purified human, Enzyme …)
Experiment: Titration of cofactor against 5 nM Factor VIIa; increase in amidolytic activity (Chromozym t-PA); no phospholipid vesicles
Description: After 10 min at room temperature, Chromozym t-PA was added (1 mM final) and the initial rate of substrate hydrolysis was measured at 405 nm using a microplate reader (Molecular Devices, Menlo Park, Calif.). […] Kinetic parameters were calculated using Prism 4 (GraphPad Software, San Diego, Calif.).

Kd | Binder
7.05 nM | sTF-annexin V chimeric protein (other, Expressed in the E. coli periplasm from pET-22b(+), whose signal peptide is removed; also called sTF-annV; sTF-AnnV) GTTNTVAAYNLTWKSTNFKTILEWEPKPVNQVYTVQISTKSGDWKSKCFYTTDTECDLTDEIVKDVKQTYLARVFSYPAGNVESTGSAGEPLYENSPEFTPYLETNLGQPTIQSFEQVGTKVNVTVEDERTLVRRNNTFLSLRDVFGKDLIYTLYYWKSSSSGKKTAKTNTNEFLIDVDKGENYCFSVQAVIPSRTVNRKSTDSPVECMGQEKGEFREGGGGSGGGGSGGGGSAQVLRGTVTDFPGFDERADAETLRKAMKGLGTDEESILTLLTSRSNAQRQEISAAFKTLFGRDLLDDLKSELTGKFEKLIVALMKPSRLYDAYELKHALKGAGTNEKVLTEIIASRTPEELRAIKQVYEEEYGSSLEDDVVGDTSGYYQRMLVVLLQANRDPDAGIDEAQVEQDAQALFQAGELKWGTDEEKFITIFGTRSVSHLRKVFDKYMTISGFQIEETIDRETSGNLEQLLLAVVKSIRSIPAYLAETLYYAMKGAGTDDHTLIRVMVSRSEIDLFNIRKEFRKNFATSLYSMIKGDTSGDYKKALLLLCGEDDPLEHHHHHH
8.17 nM | recombinant sTF (TF2-219) (receptor, also called soluble TF; soluble Tissue Factor) GTTNTVAAYNLTWKSTNFKTILEWEPKPVNQVYTVQISTKSGDWKSKCFYTTDTECDLTDEIVKDVKQTYLARVFSYPAGNVESTGSAGEPLYENSPEFTPYLETNLGQPTIQSFEQVGTKVNVTVEDERTLVRRNNTFLSLRDVFGKDLIYTLYYWKSSSSGKKTAKTNTNEFLIDVDKGENYCFSVQAVIPSRTVNRKSTDSPVECMGQEKGEFRE

From US20080280831A1 (BOARD OF REGENTS OF THE UNIVERSITY OF OKLAHOMA, published 2008)
